Results taken from US20140087995A1 (published 2014).
Numbered stars: 1 amine (or outer) side, 2 acyl side, 3 side chain; on linkers, the order of the positions; unused ones are H or OH. Bridge positions count the residues as written; N and C are the ends. Side chains are listed from the residue outwards. Ends that are not written are not given here. * marks the point of attachment. C20 diacid = O=C(O)CCCCCCCCCCCCCCCCCCC(=O)*; γGlu = O=C(O)[C@H](CCC(=O)[*:2])N[*:1]

T1: human amylin receptor (amylin 3(a) receptor: human calcitonin receptor co-expressed with RAMP-3) (human, UniProt P30988 25-474; O60896 24-148, limits assumed)
T1 construct: whole, on cells; Used as cell membranes prepared from the Amylin 3(a)/CRE-luc BHK cells (Assay V); also called hAmylin-R; hAmylinR
T1 sequence (looked up) 1: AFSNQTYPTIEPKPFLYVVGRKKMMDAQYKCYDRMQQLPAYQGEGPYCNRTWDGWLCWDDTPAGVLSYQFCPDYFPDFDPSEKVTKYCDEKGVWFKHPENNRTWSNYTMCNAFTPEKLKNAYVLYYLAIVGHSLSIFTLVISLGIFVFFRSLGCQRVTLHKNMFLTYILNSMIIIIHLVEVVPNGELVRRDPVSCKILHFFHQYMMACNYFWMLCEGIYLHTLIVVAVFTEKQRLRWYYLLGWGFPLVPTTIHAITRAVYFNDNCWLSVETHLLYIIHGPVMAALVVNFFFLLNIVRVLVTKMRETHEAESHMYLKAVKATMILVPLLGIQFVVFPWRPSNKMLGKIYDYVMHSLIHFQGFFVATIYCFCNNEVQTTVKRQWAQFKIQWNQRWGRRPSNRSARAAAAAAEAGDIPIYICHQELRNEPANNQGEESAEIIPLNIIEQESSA
T1 sequence (looked up) 2: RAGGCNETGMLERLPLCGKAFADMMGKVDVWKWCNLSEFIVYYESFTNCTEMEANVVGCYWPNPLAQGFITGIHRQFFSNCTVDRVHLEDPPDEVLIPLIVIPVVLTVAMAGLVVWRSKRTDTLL

T2: human calcitonin receptor (human, UniProt P30988 25-474)
T2 sequence (looked up): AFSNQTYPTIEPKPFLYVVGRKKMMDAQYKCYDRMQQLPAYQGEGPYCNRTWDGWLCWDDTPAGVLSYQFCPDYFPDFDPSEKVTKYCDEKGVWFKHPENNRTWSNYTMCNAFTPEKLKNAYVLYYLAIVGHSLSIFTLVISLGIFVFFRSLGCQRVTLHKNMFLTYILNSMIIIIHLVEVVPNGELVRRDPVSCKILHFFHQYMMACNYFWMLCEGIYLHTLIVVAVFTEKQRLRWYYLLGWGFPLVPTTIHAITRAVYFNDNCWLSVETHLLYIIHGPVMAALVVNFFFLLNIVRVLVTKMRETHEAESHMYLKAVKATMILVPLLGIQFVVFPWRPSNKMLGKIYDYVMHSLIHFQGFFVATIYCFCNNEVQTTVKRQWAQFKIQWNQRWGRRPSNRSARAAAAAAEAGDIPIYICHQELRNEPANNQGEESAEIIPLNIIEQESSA


Molecular target: T1, human amylin receptor (amylin 3(a) …)
Test: SPA displacement of 125I-rat amylin, hAmylin 3(a) receptor membranes
In short: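 One-site competition analysis of SPA counts yielded IC₅₀ as a measure of affinity. Membranes were at 35 ng/μL final; incubation was 120 min at 25° C, pH 7.4.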

IC50 [pM] | Binder
148 | K([γGlu-C20 diacid])CNTATCATQRLAAFLRHSSPNFGAIPSSTNVGPNTY-NH2 (disulfide 2-7; N-terminus assumed; SMILES CC[C@H](C)[C@H](NC(=O)[C@H](C)NC(=O)CNC(=O)[C@H](Cc1ccccc1)NC(=O)[C@H](CC(N)=O)NC(=O)[C@@H]1CCCN1C(=O)[C@H](CO)NC(=O)[C@H](CO)NC(=O)[C@H](Cc1c[nH]cn1)NC(=O)[C@H](CCCNC(=N)N)NC(=O)[C@H](CC(C)C)NC(=O)[C@H](Cc1ccccc1)NC(=O)[C@H](C)NC(=O)[C@H](C)NC(=O)[C@H](CC(C)C)NC(=O)[C@H](CCCNC(=N)N)NC(=O)[C@H](CCC(N)=O)NC(=O)[C@@H](NC(=O)[C@H](C)NC(=O)[C@@H]1CSSC[C@H](NC(=O)[C@@H](N)CCCCNC(=O)CC[C@H](NC(=O)CCCCCCCCCCCCCCCCCCC(=O)O)C(=O)O)C(=O)N[C@@H](CC(N)=O)C(=O)N[C@@H]([C@@H](C)O)C(=O)N[C@@H](C)C(=O)N[C@@H]([C@@H](C)O)C(=O)N1)[C@@H](C)O)C(=O)N1CCC[C@H]1C(=O)N[C@@H](CO)C(=O)N[C@@H](CO)C(=O)N[C@H](C(=O)N[C@@H](CC(N)=O)C(=O)N[C@H](C(=O)NCC(=O)N1CCC[C@H]1C(=O)N[C@@H](CC(N)=O)C(=O)N[C@H](C(=O)N[C@@H](Cc1ccc(O)cc1)C(N)=O)[C@@H](C)O)C(C)C)[C@@H](C)O, also called compound 94)

Molecular target: T2, human calcitonin receptor
Test: cell-based or functional assay

hCTR funct. EC50 (CRE luciferase reporter, BHK cells) [pM] | Binder
185 | K([γGlu-C20 diacid])CNTATCATQRLAEFLRHSSPNFGAIPSSTNVGSNTP-NH2 (disulfide 2-7; N-terminus assumed; SMILES CC[C@H](C)[C@H](NC(=O)[C@H](C)NC(=O)CNC(=O)[C@H](Cc1ccccc1)NC(=O)[C@H](CC(N)=O)NC(=O)[C@@H]1CCCN1C(=O)[C@H](CO)NC(=O)[C@H](CO)NC(=O)[C@H](Cc1c[nH]cn1)NC(=O)[C@H](CCCNC(=N)N)NC(=O)[C@H](CC(C)C)NC(=O)[C@H](Cc1ccccc1)NC(=O)[C@H](CCC(=O)O)NC(=O)[C@H](C)NC(=O)[C@H](CC(C)C)NC(=O)[C@H](CCCNC(=N)N)NC(=O)[C@H](CCC(N)=O)NC(=O)[C@@H](NC(=O)[C@H](C)NC(=O)[C@@H]1CSSC[C@H](NC(=O)[C@@H](N)CCCCNC(=O)CC[C@H](NC(=O)CCCCCCCCCCCCCCCCCCC(=O)O)C(=O)O)C(=O)N[C@@H](CC(N)=O)C(=O)N[C@@H]([C@@H](C)O)C(=O)N[C@@H](C)C(=O)N[C@@H]([C@@H](C)O)C(=O)N1)[C@@H](C)O)C(=O)N1CCC[C@H]1C(=O)N[C@@H](CO)C(=O)N[C@@H](CO)C(=O)N[C@H](C(=O)N[C@@H](CC(N)=O)C(=O)N[C@H](C(=O)NCC(=O)N[C@@H](CO)C(=O)N[C@@H](CC(N)=O)C(=O)N[C@H](C(=O)N1CCC[C@H]1C(N)=O)[C@@H](C)O)C(C)C)[C@@H](C)O, Synthetic acylated analogue of human amylin; also called compound 12)
90 | K([γGlu-C20 diacid])CNTATCATQRLAEFLRHSSPNFGAIPSSTNVGPNTP-NH2 (disulfide 2-7; N-terminus assumed; SMILES CC[C@H](C)[C@H](NC(=O)[C@H](C)NC(=O)CNC(=O)[C@H](Cc1ccccc1)NC(=O)[C@H](CC(N)=O)NC(=O)[C@@H]1CCCN1C(=O)[C@H](CO)NC(=O)[C@H](CO)NC(=O)[C@H](Cc1c[nH]cn1)NC(=O)[C@H](CCCNC(=N)N)NC(=O)[C@H](CC(C)C)NC(=O)[C@H](Cc1ccccc1)NC(=O)[C@H](CCC(=O)O)NC(=O)[C@H](C)NC(=O)[C@H](CC(C)C)NC(=O)[C@H](CCCNC(=N)N)NC(=O)[C@H](CCC(N)=O)NC(=O)[C@@H](NC(=O)[C@H](C)NC(=O)[C@@H]1CSSC[C@H](NC(=O)[C@@H](N)CCCCNC(=O)CC[C@H](NC(=O)CCCCCCCCCCCCCCCCCCC(=O)O)C(=O)O)C(=O)N[C@@H](CC(N)=O)C(=O)N[C@@H]([C@@H](C)O)C(=O)N[C@@H](C)C(=O)N[C@@H]([C@@H](C)O)C(=O)N1)[C@@H](C)O)C(=O)N1CCC[C@H]1C(=O)N[C@@H](CO)C(=O)N[C@@H](CO)C(=O)N[C@H](C(=O)N[C@@H](CC(N)=O)C(=O)N[C@H](C(=O)NCC(=O)N1CCC[C@H]1C(=O)N[C@@H](CC(N)=O)C(=O)N[C@H](C(=O)N1CCC[C@H]1C(N)=O)[C@@H](C)O)C(C)C)[C@@H](C)O, Synthetic acylated analogue of human amylin)
102 | K([γGlu-γGlu-C20 diacid])CNTATCATQRLAEFLRHSSPNFGAIPSSTNVGPETP-NH2 (disulfide 2-7; N-terminus assumed; SMILES CC[C@H](C)[C@H](NC(=O)[C@H](C)NC(=O)CNC(=O)[C@H](Cc1ccccc1)NC(=O)[C@H](CC(N)=O)NC(=O)[C@@H]1CCCN1C(=O)[C@H](CO)NC(=O)[C@H](CO)NC(=O)[C@H](Cc1c[nH]cn1)NC(=O)[C@H](CCCNC(=N)N)NC(=O)[C@H](CC(C)C)NC(=O)[C@H](Cc1ccccc1)NC(=O)[C@H](CCC(=O)O)NC(=O)[C@H](C)NC(=O)[C@H](CC(C)C)NC(=O)[C@H](CCCNC(=N)N)NC(=O)[C@H](CCC(N)=O)NC(=O)[C@@H](NC(=O)[C@H](C)NC(=O)[C@@H]1CSSC[C@H](NC(=O)[C@@H](N)CCCCNC(=O)CC[C@H](NC(=O)CC[C@H](NC(=O)CCCCCCCCCCCCCCCCCCC(=O)O)C(=O)O)C(=O)O)C(=O)N[C@@H](CC(N)=O)C(=O)N[C@@H]([C@@H](C)O)C(=O)N[C@@H](C)C(=O)N[C@@H]([C@@H](C)O)C(=O)N1)[C@@H](C)O)C(=O)N1CCC[C@H]1C(=O)N[C@@H](CO)C(=O)N[C@@H](CO)C(=O)N[C@H](C(=O)N[C@@H](CC(N)=O)C(=O)N[C@H](C(=O)NCC(=O)N1CCC[C@H]1C(=O)N[C@@H](CCC(=O)O)C(=O)N[C@H](C(=O)N1CCC[C@H]1C(N)=O)[C@@H](C)O)C(C)C)[C@@H](C)O, Synthetic acylated analogue of human amylin)

The remaining lines, values behind:

Binder | hCTR funct. EC50 (CRE luciferase reporter, BHK cells) [pM]
{C20 diacid-γGlu-γGlu}-KCNTATCATQRLAEFLRHSSPNFGAIPSSTNVGSNTP-NH2 (disulfide 2-7; SMILES CC[C@H](C)[C@H](NC(=O)[C@H](C)NC(=O)CNC(=O)[C@H](Cc1ccccc1)NC(=O)[C@H](CC(N)=O)NC(=O)[C@@H]1CCCN1C(=O)[C@H](CO)NC(=O)[C@H](CO)NC(=O)[C@H](Cc1c[nH]cn1)NC(=O)[C@H](CCCNC(=N)N)NC(=O)[C@H](CC(C)C)NC(=O)[C@H](Cc1ccccc1)NC(=O)[C@H](CCC(=O)O)NC(=O)[C@H](C)NC(=O)[C@H](CC(C)C)NC(=O)[C@H](CCCNC(=N)N)NC(=O)[C@H](CCC(N)=O)NC(=O)[C@@H](NC(=O)[C@H](C)NC(=O)[C@@H]1CSSC[C@H](NC(=O)[C@H](CCCCN)NC(=O)CC[C@H](NC(=O)CC[C@H](NC(=O)CCCCCCCCCCCCCCCCCCC(=O)O)C(=O)O)C(=O)O)C(=O)N[C@@H](CC(N)=O)C(=O)N[C@@H]([C@@H](C)O)C(=O)N[C@@H](C)C(=O)N[C@@H]([C@@H](C)O)C(=O)N1)[C@@H](C)O)C(=O)N1CCC[C@H]1C(=O)N[C@@H](CO)C(=O)N[C@@H](CO)C(=O)N[C@H](C(=O)N[C@@H](CC(N)=O)C(=O)N[C@H](C(=O)NCC(=O)N[C@@H](CO)C(=O)N[C@@H](CC(N)=O)C(=O)N[C@H](C(=O)N1CCC[C@H]1C(N)=O)[C@@H](C)O)C(C)C)[C@@H](C)O, Synthetic acylated analogue of human amylin; also called compound 14) | 238
K([γGlu-C20 diacid])CNTATCATQRLAHFLRHSSPNFGAIPSSTNVGPNTP-NH2 (disulfide 2-7; N-terminus assumed; SMILES CC[C@H](C)[C@H](NC(=O)[C@H](C)NC(=O)CNC(=O)[C@H](Cc1ccccc1)NC(=O)[C@H](CC(N)=O)NC(=O)[C@@H]1CCCN1C(=O)[C@H](CO)NC(=O)[C@H](CO)NC(=O)[C@H](Cc1c[nH]cn1)NC(=O)[C@H](CCCNC(=N)N)NC(=O)[C@H](CC(C)C)NC(=O)[C@H](Cc1ccccc1)NC(=O)[C@H](Cc1c[nH]cn1)NC(=O)[C@H](C)NC(=O)[C@H](CC(C)C)NC(=O)[C@H](CCCNC(=N)N)NC(=O)[C@H](CCC(N)=O)NC(=O)[C@@H](NC(=O)[C@H](C)NC(=O)[C@@H]1CSSC[C@H](NC(=O)[C@@H](N)CCCCNC(=O)CC[C@H](NC(=O)CCCCCCCCCCCCCCCCCCC(=O)O)C(=O)O)C(=O)N[C@@H](CC(N)=O)C(=O)N[C@@H]([C@@H](C)O)C(=O)N[C@@H](C)C(=O)N[C@@H]([C@@H](C)O)C(=O)N1)[C@@H](C)O)C(=O)N1CCC[C@H]1C(=O)N[C@@H](CO)C(=O)N[C@@H](CO)C(=O)N[C@H](C(=O)N[C@@H](CC(N)=O)C(=O)N[C@H](C(=O)NCC(=O)N1CCC[C@H]1C(=O)N[C@@H](CC(N)=O)C(=O)N[C@H](C(=O)N1CCC[C@H]1C(N)=O)[C@@H](C)O)C(C)C)[C@@H](C)O, Synthetic acylated analogue of human amylin) | 40
K([γGlu-γGlu-C20 diacid])CNTATCATQRLAEFLRHSSPNFGAIPSSTNVGSNTP-NH2 (disulfide 2-7 (inferred), Synthetic acylated analogue of human amylin; also called compound 13) | 470
